From the supplement of paper PMC9170038 come the findings set out here.

The subject of this series is MS2 coat protein. Briefly: apparent KD of MS2 coat protein; designed switch direction (-1 OFF switch, 1 ON switch): 1; higher = weaker reporter binding. A digest of the protocol: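 RNA switches sharing common flanks were transcribed by stalled E. coli RNA polymerase on Illumina chips. A doubling series of SNAP-549-labelled MS2 coat protein, from 0.7 or 1.5 nM to 3 µM, was applied in Tris-HCl pH 7.5 buffer with KCl, MgCl2, BSA, DTT, tRNA and Tween-20. Each step lasted 0.8–1.5 h at the bottom of the series and 10–20 min at the top. Normalised cluster fluorescence was curve-fitted, giving apparent KD as the per-design median over clusters.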

[1] abbreviates: input ligand: microRNA oligo, concentration not stated.
Where [2] appears, read: Eterna round: R95, input ligand: FMN 200 uM.
Where [3] appears, read: Eterna round: R95, input ligand: microRNA oligo, concentration not stated.
[4] abbreviates: Eterna round: R95, input ligand: none.

Take “UGGUACAUGGGAGGAUAUCUCAUGGUGACAUGAGGAUCACCCAUGUAGUUGGUGCCGAAAGGCUGAGAGAAGGCCCAUGUACCU [JL SSNG1 3.76] (Eterna round: R96, puzzle: Same State NG 2)”: the “apparent KD of MS2 coat protein” value amounted to 0.0629 µM (input ligand: FMN 200 uM), 0.0593 µM under setting [1] and 0.0999 µM (input ligand: none).

As for “UGUCCAGCCUGAGCUGGACAAAAGCAUGUACAUGAGGAUCACCCAUGUUCAUGUACAAGCUUUUUGCUCGUCUUACC [salish99_208a_r3_083] (puzzle: Sensor for hsa-mir-208a)”, the “apparent KD of MS2 coat protein” value is 0.464 µM under setting [2], 0.0159 µM under setting [3] and 0.61 µM under setting [4].

For the sequence “UGUCCAGCCUGAGCUGGACAAAAGCAUGUACAUGAGGAUCACCCAUGUUCAUGUACAAGCUUUUUGCUCGUCUUAGU [salish99_208a_r3_065] (puzzle: Sensor for hsa-mir-208a)”, the “apparent KD of MS2 coat protein” value was 0.489 µM under setting [2], 0.0138 µM under setting [3] and 0.619 µM under setting [4].

Regarding “UGUUGGUUUUUGCUCGUUUUUUGUGUUGAACAUGAGGAUCACCCAUGUAUUGUACAGUCCAGUUUGGUAAUGGUGCG [JR_SHM208A_Sub046] (puzzle: Sensor for hsa-mir-208a)”, the “apparent KD of MS2 coat protein” value by setting is: under setting [2], 0.0416 µM; under setting [3], 0.0314 µM; under setting [4], 0.0575 µM.

Take “UGUUGUAUUACAGGAUAUCUAGUAUUUUUAUUAAGAGAAGGGUAUUCACAUGAGGAUCACCCAUGUAUAUACGAGGAAGUUGUG [JMF's solution 54] (Eterna round: R96, puzzle: Same State NG 1)”: the “apparent KD of MS2 coat protein” value under setting [1] came to 0.0337 µM.

On to “UGUUGUAUUACAGGAUAUCUAUGAUUUUUAUUUAGAGAAGGGUAUUCACAUGAGGAUCACCCAUGUAUAUACGAGGAAGUUGUG [JMF's solution 11] (Eterna round: R96, puzzle: Same State NG 1)”, for which the “apparent KD of MS2 coat protein” value under setting [1] came out at 0.0368 µM.

With “UGUUGUAUUACAGGAUAUCUAUUAGUAUUAUUUAGAGAAGGGUAUUCACAUGAGGAUCACCCAUGUAUAUACGAGGAAGUUGUG [JMF's solution 89] (Eterna round: R96, puzzle: Same State NG 1)”, under setting [1], the “apparent KD of MS2 coat protein” value came out at 0.0348 µM.

For the sequence “UGUUGUAUUACAGGAUAUCUAUUAGUUUGAUUUAGAGAAGGGUAUUCACAUGAGGAUCACCCAUGUAUAUACGAGGAAGUUGUG [JMF's solution 94] (Eterna round: R96, puzzle: Same State NG 1)”, under setting [1], the “apparent KD of MS2 coat protein” value is 0.0414 µM.

On to “UGUUGUAUUACAGGAUAUCUAUUAGUUUUAAUUAGAGAAGGGUAUUCACAUGAGGAUCACCCAUGUAUAUACGAGGAAGUUGUG [JMF's solution 98] (Eterna round: R96, puzzle: Same State NG 1)”, for which the “apparent KD of MS2 coat protein” value under setting [1] is 0.0338 µM.

For the sequence “UGUUGUAUUACAGGAUAUCUAUUAUUUUUGUUUAGAGAAGGGUAUUCACAUGAGGAUCACCCAUGUAUAUACGAGGAAGUUGUG [JMF's solution 24] (Eterna round: R96, puzzle: Same State NG 1)”, the “apparent KD of MS2 coat protein” value under setting [1] is 0.0376 µM.

As to “UGUUGUAUUACAGGAUAUCUAUUGUUUUUAUAUAGAGAAGGGUAUUCACAUGAGGAUCACCCAUGUAUAUACGAGGAAGUUGUG [JMF's solution 84] (Eterna round: R96, puzzle: Same State NG 1)”, the “apparent KD of MS2 coat protein” value under setting [1] was determined as 0.0332 µM.

As to “UGUUGUAUUACAGGAUAUCUAUUGUUUUUAUGUAGAGAAGGGUAUUCACAUGAGGAUCACCCAUGUAUAUACGAGGAAGUUGUG [JMF's solution 85] (Eterna round: R96, puzzle: Same State NG 1)”, the “apparent KD of MS2 coat protein” value runs as follows: (input ligand: FMN 200 uM) 0.0532 µM; under setting [1], 0.0366 µM; (input ligand: none) 0.0488 µM.

For “UGUUGUUAAUUAGGAUAUGGUCACAUGAGGAUCACCCAUGUAAUGUCGAUGCUAUGUGGAUCCGAUCAGAAGGAAUGGCUAACA [SameState NG2 #95] (Eterna round: R96, puzzle: Same State NG 2)”, the “apparent KD of MS2 coat protein” value (input ligand: FMN 200 uM) came to 0.201 µM, the “apparent KD of MS2 coat protein” value under setting [1] came to 0.121 µM and the “apparent KD of MS2 coat protein” value (input ligand: none) stood at 0.204 µM.

For the sequence “UUAACAUGACGAGGAUAUCAUUUAUAUCUUGAUUGAGAAGGCGUUCUUUUUUUUACCUAACAUGAGGAUCACCCAUGUGACAGU [JR_SSNG1_Sub051] (Eterna round: R96, puzzle: Same State NG 1)”, the “apparent KD of MS2 coat protein” value (input ligand: FMN 200 uM) stood at 0.0124 µM, the “apparent KD of MS2 coat protein” value under setting [1] amounted to 0.0137 µM and the “apparent KD of MS2 coat protein” value (input ligand: none) was 0.0176 µM.

“UUAACAUGAGGAUCACCCAUGUAUACGGAGUUUGCAAUUUGACAGGAUAUUGAAGAUCUAUAUAGCAAGAAGGGUCGUUAGUCU [JR_SSNG3_Sub006] (Eterna round: R96, puzzle: Same State NG 3)”: the “apparent KD of MS2 coat protein” value by setting is: (input ligand: FMN 200 uM) 0.0475 µM; under setting [1], 0.0326 µM; (input ligand: none) 0.0447 µM.

In the case of “UUAAGCCACGGGCAGGAUAUGUAUUAAUAUACAUGAGGAUCACCCAUGUGCAGGUGUAACACCUGACAGAAGGGCCAAUCGCGGC [Soondi - 5] (puzzle: Same State 2)”, the “apparent KD of MS2 coat protein” value under setting [2] was 0.035 µM, the “apparent KD of MS2 coat protein” value under setting [3] amounted to 0.177 µM and the “apparent KD of MS2 coat protein” value under setting [4] turned out to be 0.286 µM.

As for “UUAAUAAAUCAAGGAUAUCACGUCGUUUAGACGUGAGAAGGUGAUCAUAACAUGAGGAUCACCCAUGUAUUACAUGAAUAUUAA [SSNG1/1-B3] (Eterna round: R96, puzzle: Same State NG 1)”, the “apparent KD of MS2 coat protein” value is 1.18 µM (input ligand: FMN 200 uM), 0.778 µM under setting [1] and 1.57 µM (input ligand: none).

For “UUAAUGAUGUAAGGAUAUACAUGAGGAUUUCUCGUAGAAGGUACAGGACAUGAGGAUCACCCAUGUAUCGCUCCGUAGAGCGUA [JL SSNG1 1.11] (Eterna round: R96, puzzle: Same State NG 1)”, the “apparent KD of MS2 coat protein” value worked out at 0.136 µM (input ligand: FMN 200 uM), 0.292 µM under setting [1] and 0.356 µM (input ligand: none).

“UUAAUUAAUUAAUUAUACAUGAGGAUCACCCAUGUAAGUGAUCAGGAUAUCAGCUCGAUUAGAGCUGAGAAGGGAUACAUGUAA [SSNG3/13-A2] (Eterna round: R96, puzzle: Same State NG 3)”: the “apparent KD of MS2 coat protein” value runs as follows: (input ligand: FMN 200 uM) 0.142 µM; under setting [1], 0.164 µM; (input ligand: none) 0.191 µM.

Regarding “UUACUCAUGUAAGGAUAUGCAGCCGAAACGGCUGCAGAAGGUACUAUAAUACAUGAGGAUCACCCAUGUCUUUUUAAUUUUUAC [Mat - Same State NG 1 - JL mod - D70] (Eterna round: R96, puzzle: Same State NG 1)”, the “apparent KD of MS2 coat protein” value by setting is: (input ligand: FMN 200 uM) 0.0475 µM; under setting [1], 0.037 µM; (input ligand: none) 0.0441 µM.

Regarding “UUAGAAUUGCAAGGAUAUCUAAUUUAGAUAGUAAGAGAAGGUGCUUUAUAGUUACAUGAGGAUCACCCAUGUUUUUUUUUUUAU [JR_SSNG1_Sub060] (Eterna round: R96, puzzle: Same State NG 1)”, the “apparent KD of MS2 coat protein” value (input ligand: FMN 200 uM) was 0.0423 µM, the “apparent KD of MS2 coat protein” value under setting [1] turned out to be 0.0363 µM and the “apparent KD of MS2 coat protein” value (input ligand: none) worked out at 0.0499 µM.

For the sequence “UUAGAAUUGCAAGGAUAUCUUAUUUAGAUAGUAAGAGAAGGUGCUUUAUAGUUACAUGAGGAUCACCCAUGUAUUUCUUUUUAU [JR_SSNG1_Sub061] (Eterna round: R96, puzzle: Same State NG 1)”, the “apparent KD of MS2 coat protein” value under setting [1] is 0.0166 µM.
